Measurements as given in paper PMC4283936.

B1: RD6m23 (dsDNA)
DNA 1: AGTACCTCACAGCAATTTCACAGCTTTCAT
DNA 2: ATGAAAGCTGTGAAATTGCTGTGAGGTACT
B2: devR -116 (dsDNA)
DNA 1: CAGCTGTTCGTCGCGGACTCACACTCCGCGCAC
DNA 2: GTGCGCGGAGTGTGAGTCCGCGACGAACAGCTG
B3: PPE19 (dsDNA)
DNA 1: CCGTTCTCCGGACAATCACGGCCCGACC
DNA 2: GGTCGGGCCGTGATTGTCCGGAGAACGG
B4: Rv3143 (dsDNA)
DNA 1: AACCGCACAGCCCTCTAACCACTGCTCG
DNA 2: CGAGCAGTGGTTAGAGGGCTGTGCGGTT
B5: Rv1517 (dsDNA)
DNA 1: CATTTTTCAGCAATTTCTCAGTAACGCT
DNA 2: AGCGTTACTGAGAAATTGCTGAAAAATG
B6: nuoA -63 (dsDNA)
DNA 1: GTCACGGCAGCCCGGTCACCGCCCGGCC
DNA 2: GGCCGGGCGGTGACCGGGCTGCCGTGAC
B7: Rv3134c (dsDNA)
DNA 1: GCCATTTCTGGGACTTTGCTGTGAAAAGCTG
DNA 2: CAGCTTTTCACAGCAAAGTCCCAGAAATGGC
B8: RD6m1 (dsDNA)
DNA 1: AGTACCGGCGCTGACTTTCACAGCTTTCAT
DNA 2: ATGAAAGCTGTGAAAGTCAGCGCCGGTACT
B9: fbpA (dsDNA)
DNA 1: ATACTGACAGCAAGATCACAATTGAGCC
DNA 2: GGCTCAATTGTGATCTTGCTGTCAGTAT
B10: fadD9 (dsDNA)
DNA 1: CATCTCACAGCCGATCAGCAGCAGGCTT
DNA 2: AAGCCTGCTGCTGATCGGCTGTGAGATG
B11: espA -246 (dsDNA)
DNA 1: CTTGGGATCGCGCCGCCTACACGGCGGTTGGC
DNA 2: GCCAACCGCCGTGTAGGCGGCGCGATCCCAAG
B12: devR -146 (dsDNA)
DNA 1: CGTCATCTGGCCGCCAACGCAAAGCCGGGTCA
DNA 2: TGACCCGGCTTTGCGTTGGCGGCCAGATGACG
B13: nuoA -52 (dsDNA)
DNA 1: CCGGTCACCGCCCGGCCGCCGCGCTGGC
DNA 2: GCCAGCGCGGCGGCCGGGCGGTGACCGG
B14: WB6 D1 (dsDNA)
DNA 1: ATACACAGCTGATTAACAGGATCTATGCC
DNA 2: GGCATAGATCCTGTTAATCAGCTGTGTAT
B15: devR -155 (dsDNA)
DNA 1: GTGCGTGCCGTCATCTGGCCGCCAACGCAA
DNA 2: TTGCGTTGGCGGCCAGATGACGGCACGCAC
B16: WB6 D5 (dsDNA)
DNA 1: AGATACACAGCTGATTAACAGGATCTA
DNA 2: TAGATCCTGTTAATCAGCTGTGTATCT
B17: RD25 (dominant SELEX sequence) (dsDNA)
DNA 1: CTGGAGCATATGGTCCAGTTAGTACCTCACAGCACTTTCAGAGCTTTCATATGCCTGCACC
DNA 2: GGTGCAGGCATATGAAAGCTCTGAAAGTGCTGTGAGGTACTAACTGGACCATATGCTCCAG
B18: PE8 (dsDNA)
DNA 1: CAGATCACACCGCCATGTCAGCCGCCAA
DNA 2: TTGGCGGCTGACATGGCGGTGTGATCTG
B19: wbbL2 (dsDNA)
DNA 1: TGGATCGCTGCCGATACACCGCCGATTT
DNA 2: AAATCGGCGGTGTATCGGCAGCGATCCA
B20: lipF -214 (dsDNA)
DNA 1: GGGCTCCCATCGAGATCACCGAAAGCGG
DNA 2: CCGCTTTCGGTGATCTCGATGGGAGCCC
B21: pks3 -653 (dsDNA)
DNA 1: GGCGGCCCACTGCGCCTGCACCGCCGTGTTGG
DNA 2: CCAACACGGCGGTGCAGGCGCAGTGGGCCGCC

Tests used:
PhoP [1] = molecular target: T1, PhoP (Mycobacterium tuberculosis, UniProt P71814 1-247); assay: ITC
PhoP [2] = molecular target: T1, PhoP; assay: ITC; remark: listed apart in the source
PhoP [3] = molecular target: T1, PhoP; assay: ITC; remark: listed apart in the source
PhoP [4] = molecular target: T1, PhoP; assay: competition
His-PhoP = His-PhoP (Mycobacterium tuberculosis, UniProt P71814 1-247); assay: SELEX

Binder | binding result (PhoP [2]) | further results
B1 |  | binding result (PhoP [1]): binds
B2 | no binding | 
B3 | no binding | 
B4 | no binding | 
B5 | no binding | 
B6 | no binding | 
B7 |  | Kd (PhoP [2]): 61.7 ± 5.3 nM
B8 |  | binding signal (PhoP [3]): ~40 fold lower affinity than RD6
B9 |  | Kd (PhoP [2]): 56.5 ± 2.6 nM
B10 |  | Kd (PhoP [2]): 82 ± 4 nM
B11 | no binding | 
B12 | no binding | 
B13 | no binding | 
B14 |  | binding result (PhoP [4]): binds
B15 | no binding | 
B16 |  | binding result (PhoP [4]): binds
B17 |  | binding result (His-PhoP): binds
B18 | no binding | 
B19 | no binding | 
B20 | no binding | 
B21 | no binding | 
